Positions count from the first letter of the chain named.
T1: 成熟型ヒトVEGF-D(Hisタッグ付加、二量体、参考例3) (human, UniProt O43915 93-201)
T1 construct: also called human VEGF-D; not shown: His tag
T1 sequence: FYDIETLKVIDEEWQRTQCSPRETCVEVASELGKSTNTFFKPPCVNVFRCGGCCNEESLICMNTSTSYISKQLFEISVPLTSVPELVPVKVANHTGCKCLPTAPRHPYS

T2: 成熟型カニクイザルVEGF-D(Hisタッグ付加、二量体、参考例3) (cynomolgus monkey, UniProt O43915 93-201 (human entry))
T2 construct: also called cynomolgus VEGF-D; not shown: His tag
T2 chain: T1 sequence with A103V

B1: VE199キメラ抗体 (antibody, human IgG1, V domains shown)
VH: EVQLQQSGPELVKPGASVKMSCKASGYSFTGYNMHWVKQSHGRSLEWIGYIDPYNGDTYYNQKFRDKATLTVDKSSSTAYMQLNSLTSEDSALYYCIRAGYYAMDYWGQGTSVTVSS
VL: DIVMTQTPLSLPVSLGDQASISCRSSQSLVHINGNTYLHWYLQKPGQSPKLLIYKVSNRFSGVPDRFSGSGSGTDFTLKISRVEAEDLGVYFCSQGTHVPRTFGGGTKLEIN
notes: also called キメラVE199; chimeric VE199
B2: VE29キメラ抗体 (antibody, human IgG1, V domains shown)
VH: DVQLQESGPGLVKPSQTVSLTCTVTGYSITNRYHWWNWIRQVSGNKLEWIGYISYSGDTVSNPSLKSRISITRDTSKNQLFLQLNSVTTEDIATYYCARDGGIYFDYWGQGTTLTVSS
VL: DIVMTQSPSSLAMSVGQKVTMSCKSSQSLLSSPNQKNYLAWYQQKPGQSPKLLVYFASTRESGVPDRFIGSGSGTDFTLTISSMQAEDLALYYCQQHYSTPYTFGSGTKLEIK
notes: also called キメラVE29; chimeric VE29
B3: ヒト化VE48抗体(H鎖:VE48HA、L鎖:VE48L6) (antibody, human IgG1, kappa, V domains shown)
VH: QVTLKESGPALVKPTQTLTLTCTFSGFSLSTYGMGVGWIRQPPGKALEWLANIWWNDDKYYNPVLRSRLTISKDTSKNQVVLTMTNMDPVDTATYYCVQVTNPFVFWGQGTLVTVSS
VL: DIVMTQTPLSLPVTPGEPASISCRSSQSLVHINGNTYLHWYLQKPGQSPQLLIYKVSNRFSGVPDRFSGSGSGTDFTLKISRVEAEDVGVYFCSQSTHVPWTFGGGTKVEIKR
notes: also called 48HA/48L6; HA/L6
B4: ヒト化抗体VE48抗体(48HK/48L6) (antibody, V domains shown)
VH: B3 VH with Q109E
VL: B3 VL
notes: The light chain is VE48L6; also called VE48HK/VE48L6
B5: ヒト化VE199抗体(H鎖:VE199HA、L鎖:VE199LA) (antibody, human IgG1, kappa, V domains shown)
VH: QVQLVQSGPEVKKPGASVKVSCKASGYTFTGYNMHWVRQAPGQGLEWMGYIDPYNGDTYYNQKFQDRVTLTVDKSTSTAYMELSSLRSEDTAVYYCIRAGYYAMDYWGQGTLVTVSS
VL: B3 VL with S96G, W101R
notes: also called VE199HALA
B6: ヒト化抗体VE48抗体(48HH/48L6) (antibody, V domains shown)
VH: B3 VH with N56E
VL: B3 VL
notes: The light chain is VE48L6; also called VE48HH/VE48L6
B7: ヒト化抗体VE48抗体(48HJ/48L6) (antibody, V domains shown)
VH: B3 VH with R66Q, S67D
VL: B3 VL
notes: The light chain is VE48L6; also called VE48HJ/VE48L6
B8: ヒト化抗体VE48抗体(48HI/48L6) (antibody, V domains shown)
VH: B3 VH with T31D
VL: B3 VL
notes: The light chain is VE48L6; also called VE48HI/VE48L6
B9: ヒト化抗体VE48抗体(48H18/48L6) (antibody, V domains shown)
VH: B3 VH with T31D, N56E, Q109E
VL: B3 VL
notes: The light chain is VE48L6; also called VE48H18/VE48L6
B10: ヒト化抗体VE48抗体(48H16/48L6) (antibody, V domains shown)
VH: B3 VH with T31D, Q109E
VL: B3 VL
notes: The light chain is VE48L6; also called VE48H16/VE48L6
B11: ヒト化抗体VE48抗体(48H17/48L6) (antibody, V domains shown)
VH: B3 VH with N56E, Q109E
VL: B3 VL
notes: The light chain is VE48L6; also called VE48H17/VE48L6
B12: HA/L14(H鎖:VE48HA、L鎖:VE48L14) (antibody, human IgG1, kappa, V domains shown)
VH: B3 VH
VL: B3 VL with N33K
notes: also called 48HA/48L14

Each binder was assayed against T1, 成熟型ヒトVEGF-D(Hisタッグ付加、二量体、参考例3) (assay: competition cell ELISA, antibody titrated against 2.5 ug/mL human VEGF-D on human VEGFR-3 CHO cells).

Binding result, binds:
B1
B2

Each binder was assayed against T1, 成熟型ヒトVEGF-D(Hisタッグ付加、二量体、参考例3) (assay: competition cell ELISA, inhibition of human VEGF-D binding to human VEGFR-3 CHO cells, against chimeric VE48).

Binding result, binds:
B3
B4
B5
B6
B7
B8
B9
B10
B11
B12

Biological target: T2, 成熟型カニクイザルVEGF-D(Hisタッグ付加、二量体、参考例3)
Experiment: competition cell ELISA, antibody titrated against 2.5 ug/mL cynomolgus VEGF-D on cynomolgus VEGFR-3 CHO cells

Binding result, binds:
B1
